T1: EsCas13d, nuclease-dead (Eubacterium siraeum, UniProt B0MS50, R295A;H300A;R849A;H854A)
T1 sequence: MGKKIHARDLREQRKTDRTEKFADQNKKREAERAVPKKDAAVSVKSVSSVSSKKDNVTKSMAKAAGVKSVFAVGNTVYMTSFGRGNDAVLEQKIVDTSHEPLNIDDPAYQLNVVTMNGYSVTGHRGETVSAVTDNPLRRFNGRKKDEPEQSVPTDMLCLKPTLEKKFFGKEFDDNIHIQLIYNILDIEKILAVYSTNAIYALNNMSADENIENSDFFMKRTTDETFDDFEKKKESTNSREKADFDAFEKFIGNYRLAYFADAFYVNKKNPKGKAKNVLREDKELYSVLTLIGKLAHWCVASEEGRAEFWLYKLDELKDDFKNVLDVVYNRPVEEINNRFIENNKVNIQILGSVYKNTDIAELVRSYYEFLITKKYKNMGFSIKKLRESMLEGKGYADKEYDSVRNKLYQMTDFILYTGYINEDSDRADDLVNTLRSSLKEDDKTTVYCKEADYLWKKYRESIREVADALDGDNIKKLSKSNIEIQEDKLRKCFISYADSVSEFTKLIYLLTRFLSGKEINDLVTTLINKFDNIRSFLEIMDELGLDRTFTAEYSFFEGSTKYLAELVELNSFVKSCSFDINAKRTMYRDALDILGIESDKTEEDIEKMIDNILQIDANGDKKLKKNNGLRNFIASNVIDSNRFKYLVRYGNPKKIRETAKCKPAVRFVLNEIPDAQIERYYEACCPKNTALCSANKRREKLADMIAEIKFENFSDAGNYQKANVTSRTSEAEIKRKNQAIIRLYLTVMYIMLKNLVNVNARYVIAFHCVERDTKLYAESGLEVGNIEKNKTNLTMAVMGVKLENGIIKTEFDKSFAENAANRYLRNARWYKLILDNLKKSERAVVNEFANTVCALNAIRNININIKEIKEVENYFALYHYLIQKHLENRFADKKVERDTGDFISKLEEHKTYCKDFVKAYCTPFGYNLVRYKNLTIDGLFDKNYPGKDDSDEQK

B1: target 2 MT 5'PFS GAC 3'PFS AGG (mixed)
RNA 1: CACCCGUGCAAAAUUGCAGGGGUCUAAAACCUUCUCCAAAUUGUUUCAUCCU
RNA 2: GGGAAUGGAUCCACAUCUACGAAUUCGACAGGAUGAAACAAUUUGGAGAAGAGGAGAUCGGAAGAGCACACGU
B2: target 2 MT 5'PFS GAC 3'PFS AGC (mixed)
RNA 1: CACCCGUGCAAAAUUGCAGGGGUCUAAAACCUUCUCCAAAUUGUUUCAUCCU
RNA 2: GGGAAUGGAUCCACAUCUACGAAUUCGACAGGAUGAAACAAUUUGGAGAAGAGCAGAUCGGAAGAGCACACGU
B3: target 2 MT 5'PFS GGU 3'PFS AAU (mixed)
RNA 1: CACCCGUGCAAAAUUGCAGGGGUCUAAAACCUUCUCCAAAUUGUUUCAUCCU
RNA 2: GGGAAUGGAUCCACAUCUACGAAUUCGGUAGGAUGAAACAAUUUGGAGAAGAAUAGAUCGGAAGAGCACACGU
B4: target 2 MT 5'PFS UGG 3'PFS CCG (mixed)
RNA 1: CACCCGUGCAAAAUUGCAGGGGUCUAAAACCUUCUCCAAAUUGUUUCAUCCU
RNA 2: GGGAAUGGAUCCACAUCUACGAAUUCUGGAGGAUGAAACAAUUUGGAGAAGCCGAGAUCGGAAGAGCACACGU
B5: target 2 MT 5'PFS GUG 3'PFS CUC (mixed)
RNA 1: CACCCGUGCAAAAUUGCAGGGGUCUAAAACCUUCUCCAAAUUGUUUCAUCCU
RNA 2: GGGAAUGGAUCCACAUCUACGAAUUCGUGAGGAUGAAACAAUUUGGAGAAGCUCAGAUCGGAAGAGCACACGU
B6: target 2 MT 5'PFS AAG 3'PFS AAU (mixed)
RNA 1: CACCCGUGCAAAAUUGCAGGGGUCUAAAACCUUCUCCAAAUUGUUUCAUCCU
RNA 2: GGGAAUGGAUCCACAUCUACGAAUUCAAGAGGAUGAAACAAUUUGGAGAAGAAUAGAUCGGAAGAGCACACGU
B7: target 2 MT 5'PFS UCA 3'PFS AAU (mixed)
RNA 1: CACCCGUGCAAAAUUGCAGGGGUCUAAAACCUUCUCCAAAUUGUUUCAUCCU
RNA 2: GGGAAUGGAUCCACAUCUACGAAUUCUCAAGGAUGAAACAAUUUGGAGAAGAAUAGAUCGGAAGAGCACACGU
B8: target 2 MT 5'PFS UCA 3'PFS AAA (mixed)
RNA 1: CACCCGUGCAAAAUUGCAGGGGUCUAAAACCUUCUCCAAAUUGUUUCAUCCU
RNA 2: GGGAAUGGAUCCACAUCUACGAAUUCUCAAGGAUGAAACAAUUUGGAGAAGAAAAGAUCGGAAGAGCACACGU
B9: target 2 MT 5'PFS GUG 3'PFS CUG (mixed)
RNA 1: CACCCGUGCAAAAUUGCAGGGGUCUAAAACCUUCUCCAAAUUGUUUCAUCCU
RNA 2: GGGAAUGGAUCCACAUCUACGAAUUCGUGAGGAUGAAACAAUUUGGAGAAGCUGAGAUCGGAAGAGCACACGU
B10: target 2 MT 5'PFS GGU 3'PFS AAG (mixed)
RNA 1: CACCCGUGCAAAAUUGCAGGGGUCUAAAACCUUCUCCAAAUUGUUUCAUCCU
RNA 2: GGGAAUGGAUCCACAUCUACGAAUUCGGUAGGAUGAAACAAUUUGGAGAAGAAGAGAUCGGAAGAGCACACGU
B11: target 2 MT 5'PFS GUG 3'PFS CUU (mixed)
RNA 1: CACCCGUGCAAAAUUGCAGGGGUCUAAAACCUUCUCCAAAUUGUUUCAUCCU
RNA 2: GGGAAUGGAUCCACAUCUACGAAUUCGUGAGGAUGAAACAAUUUGGAGAAGCUUAGAUCGGAAGAGCACACGU
B12: target 2 MT 5'PFS UCA 3'PFS AAC (mixed)
RNA 1: CACCCGUGCAAAAUUGCAGGGGUCUAAAACCUUCUCCAAAUUGUUUCAUCCU
RNA 2: GGGAAUGGAUCCACAUCUACGAAUUCUCAAGGAUGAAACAAUUUGGAGAAGAACAGAUCGGAAGAGCACACGU
B13: target 2 MT 5'PFS GGU 3'PFS AAC (mixed)
RNA 1: CACCCGUGCAAAAUUGCAGGGGUCUAAAACCUUCUCCAAAUUGUUUCAUCCU
RNA 2: GGGAAUGGAUCCACAUCUACGAAUUCGGUAGGAUGAAACAAUUUGGAGAAGAACAGAUCGGAAGAGCACACGU
B14: target 2 MT 5'PFS UCA 3'PFS AAG (mixed)
RNA 1: CACCCGUGCAAAAUUGCAGGGGUCUAAAACCUUCUCCAAAUUGUUUCAUCCU
RNA 2: GGGAAUGGAUCCACAUCUACGAAUUCUCAAGGAUGAAACAAUUUGGAGAAGAAGAGAUCGGAAGAGCACACGU
B15: target 2 MT 5'PFS UCU 3'PFS CAA (mixed)
RNA 1: CACCCGUGCAAAAUUGCAGGGGUCUAAAACCUUCUCCAAAUUGUUUCAUCCU
RNA 2: GGGAAUGGAUCCACAUCUACGAAUUCUCUAGGAUGAAACAAUUUGGAGAAGCAAAGAUCGGAAGAGCACACGU
B16: target 2 MT 5'PFS GUG 3'PFS CUA (mixed)
RNA 1: CACCCGUGCAAAAUUGCAGGGGUCUAAAACCUUCUCCAAAUUGUUUCAUCCU
RNA 2: GGGAAUGGAUCCACAUCUACGAAUUCGUGAGGAUGAAACAAUUUGGAGAAGCUAAGAUCGGAAGAGCACACGU
B17: target 2 MT 5'PFS GGU 3'PFS AAA (mixed)
RNA 1: CACCCGUGCAAAAUUGCAGGGGUCUAAAACCUUCUCCAAAUUGUUUCAUCCU
RNA 2: GGGAAUGGAUCCACAUCUACGAAUUCGGUAGGAUGAAACAAUUUGGAGAAGAAAAGAUCGGAAGAGCACACGU
B18: target 2 MT 5'PFS AGG 3'PFS AAC (mixed)
RNA 1: CACCCGUGCAAAAUUGCAGGGGUCUAAAACCUUCUCCAAAUUGUUUCAUCCU
RNA 2: GGGAAUGGAUCCACAUCUACGAAUUCAGGAGGAUGAAACAAUUUGGAGAAGAACAGAUCGGAAGAGCACACGU
B19: target 2 MT 5'PFS GAC 3'PFS AGA (mixed)
RNA 1: CACCCGUGCAAAAUUGCAGGGGUCUAAAACCUUCUCCAAAUUGUUUCAUCCU
RNA 2: GGGAAUGGAUCCACAUCUACGAAUUCGACAGGAUGAAACAAUUUGGAGAAGAGAAGAUCGGAAGAGCACACGU
B20: target 2 MT 5'PFS UCU 3'PFS CAG (mixed)
RNA 1: CACCCGUGCAAAAUUGCAGGGGUCUAAAACCUUCUCCAAAUUGUUUCAUCCU
RNA 2: GGGAAUGGAUCCACAUCUACGAAUUCUCUAGGAUGAAACAAUUUGGAGAAGCAGAGAUCGGAAGAGCACACGU
B21: target 2 MT 5'PFS GAC 3'PFS AGU (mixed)
RNA 1: CACCCGUGCAAAAUUGCAGGGGUCUAAAACCUUCUCCAAAUUGUUUCAUCCU
RNA 2: GGGAAUGGAUCCACAUCUACGAAUUCGACAGGAUGAAACAAUUUGGAGAAGAGUAGAUCGGAAGAGCACACGU
B22: target 1 U3A,C4A (mixed)
RNA 1: CACCCGUGCAAAAAUGCAGGGGUCUAAAACUGAGCGGAUAACCUCUCUAUGG
RNA 2: GGGAAUGGAUCCACAUCUACGAAUUCGUACCAUAGAGAGGUUAUCCGAACACCGAGAUCGGAAGAGCACACGU
B23: target 1 insU 3' of 15,insG 3' of 10 (mixed)
RNA 1: CACCCGUGCAAAAAUGCAGGGGUCUAAAACUGAGCGGAUAACCUCUCUAUGG
RNA 2: GGGAAUGGAUCCACAUCUACGAAUUCGUACCAUAGAGUAGGUUGAUCCGCUCACCGAGAUCGGAAGAGCACACGU
B24: target 1 C7A,A16G (mixed)
RNA 1: CACCCGUGCAAAAAUGCAGGGGUCUAAAACUGAGCGGAUAACCUCUCUAUGG
RNA 2: GGGAAUGGAUCCACAUCUACGAAUUCGUACCAUAGGGAGGUUAUACGCUCACCGAGAUCGGAAGAGCACACGU

What follows are binders tested against T1, EsCas13d, nuclease-dead (assay: crRNA (strand 1, pre-loaded); Mg2+; 40 mM Tris-HCl pH 7.5, 150 mM NaCl, 6 mM MgCl2, 1 mM DTT, 0.1% Tween-20, 0.2 mg/ml BSA; 25 C; 10 min per concentration, then washed). Conditions: tags: His6-TwinStrep-SUMO cleaved; N-terminal SNAP kept (SNAP-Surface 488); label: 3' end held by stalled T7 RNA polymerase.
With B1 the Kd was 9.5 ± 0.8 nM.
B2 showed a Kd of 9.3 ± 1.3 nM.
B3 showed a Kd of 12.4 ± 2.2 nM.
Work on B4 yielded a Kd of 8.6 ± 0.8 nM.
In the case of B5, the Kd is reported as 21.4 ± 2 nM.
B6 was tested, and the Kd was 3.1 ± 0.5 nM.
Work on B7 yielded a Kd of 5.2 ± 0.7 nM.
B8 gave a Kd of 4.2 ± 0.9 nM.
Work on B9 yielded a Kd of 10.1 ± 0.7 nM.
B10 gave a Kd of 12.7 ± 1.2 nM.
For B11, the Kd was 12.8 ± 1 nM.
B12 showed a Kd of 7.5 ± 1.1 nM.
B13 showed a Kd of 13.4 ± 1.4 nM.
B14 showed a Kd of 6.7 ± 1 nM.
With B15 the Kd was 10.5 ± 2.1 nM.
B16 gave a Kd of 8.5 ± 0.7 nM.
Work on B17 yielded a Kd of 7.1 ± 1 nM.
Binder B18 has a Kd of 8.5 ± 1.7 nM.
Binder B19 has a Kd of 16 ± 6 nM.
For B20, the Kd was 7.6 ± 1.1 nM.
B21 showed a Kd of roughly 43 nM.
B22 showed a Kd of 8.5 ± 0.9 nM.
In the case of B23, the Kd is reported as 21.6 ± 2.9 nM.
B24 was tested, and the Kd was 30 ± 1.9 nM.

From article PMC10786891, “Massively parallel profiling of RNA-targeting CRISPR-Cas13d”
